B1: DBF2 kinase activator protein MOB1 (Saccharomyces cerevisiae), P40484 (parent)
chain: MSFLQNFHISPGQTIRSTRGFKWNTANAANNAGSVSPTKATPHNNTINGNNNNANTINNRADFTNNPVNGYNESDHGRMSPVLTTPKRHAPPPEQLQNVTDFNYTPSHQKPFLQPQAGTTVTTHQDIKQIVEMTLGSEGVLNQAVKLPRGEDENEWLAVHCVDFYNQINMLYGSITEFCSPQTCPRMIATNEYEYLWAFQKGQPPVSVSAPKYVECLMRWCQDQFDDESLFPSKVTGTFPEGFIQRVIQPILRRLFRVYAHIYCHHFNEILELNLQTVLNTSFRHFCLFAQEFELLRPADFGPLLELVMELRDR
partner: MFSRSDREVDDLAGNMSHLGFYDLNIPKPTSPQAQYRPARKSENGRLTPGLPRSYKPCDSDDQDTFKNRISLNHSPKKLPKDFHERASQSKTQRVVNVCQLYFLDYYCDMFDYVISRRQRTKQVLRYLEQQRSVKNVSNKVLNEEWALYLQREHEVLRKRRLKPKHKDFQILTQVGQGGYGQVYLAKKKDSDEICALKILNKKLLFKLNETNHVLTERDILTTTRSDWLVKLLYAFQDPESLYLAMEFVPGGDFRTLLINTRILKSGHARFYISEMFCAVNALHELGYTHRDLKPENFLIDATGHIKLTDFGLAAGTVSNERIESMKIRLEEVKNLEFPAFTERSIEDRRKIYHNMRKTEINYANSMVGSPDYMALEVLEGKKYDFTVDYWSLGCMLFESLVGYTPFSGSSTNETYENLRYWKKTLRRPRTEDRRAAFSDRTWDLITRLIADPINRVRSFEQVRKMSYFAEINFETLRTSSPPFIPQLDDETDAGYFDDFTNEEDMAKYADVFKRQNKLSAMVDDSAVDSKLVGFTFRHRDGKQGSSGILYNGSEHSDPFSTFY
B2: DBF2 kinase activator protein MOB1 (Saccharomyces cerevisiae), P40484 (parent)
chain: B1 chain
partner: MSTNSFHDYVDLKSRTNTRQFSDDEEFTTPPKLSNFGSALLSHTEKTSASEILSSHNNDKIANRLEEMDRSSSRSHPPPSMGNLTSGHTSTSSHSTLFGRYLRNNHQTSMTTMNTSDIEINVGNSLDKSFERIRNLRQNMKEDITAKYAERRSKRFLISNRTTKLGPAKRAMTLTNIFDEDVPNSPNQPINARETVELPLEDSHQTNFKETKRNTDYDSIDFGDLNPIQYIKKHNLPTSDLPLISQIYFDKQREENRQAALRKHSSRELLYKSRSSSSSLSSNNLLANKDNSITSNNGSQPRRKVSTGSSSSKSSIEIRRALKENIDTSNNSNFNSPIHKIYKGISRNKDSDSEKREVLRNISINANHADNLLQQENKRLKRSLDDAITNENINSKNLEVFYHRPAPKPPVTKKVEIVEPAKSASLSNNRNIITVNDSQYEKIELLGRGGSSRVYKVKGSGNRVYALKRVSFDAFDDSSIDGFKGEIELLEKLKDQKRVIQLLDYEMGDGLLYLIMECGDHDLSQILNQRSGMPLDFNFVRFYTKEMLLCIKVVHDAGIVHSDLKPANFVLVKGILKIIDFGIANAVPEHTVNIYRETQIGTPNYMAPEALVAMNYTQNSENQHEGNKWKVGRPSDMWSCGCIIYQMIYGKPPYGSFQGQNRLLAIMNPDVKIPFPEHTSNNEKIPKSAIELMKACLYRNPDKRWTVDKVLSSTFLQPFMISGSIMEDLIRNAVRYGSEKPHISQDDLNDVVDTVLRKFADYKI
B3: DBF2 kinase activator protein MOB1 (Saccharomyces cerevisiae), P40484 (parent)
chain: B1 chain
partner: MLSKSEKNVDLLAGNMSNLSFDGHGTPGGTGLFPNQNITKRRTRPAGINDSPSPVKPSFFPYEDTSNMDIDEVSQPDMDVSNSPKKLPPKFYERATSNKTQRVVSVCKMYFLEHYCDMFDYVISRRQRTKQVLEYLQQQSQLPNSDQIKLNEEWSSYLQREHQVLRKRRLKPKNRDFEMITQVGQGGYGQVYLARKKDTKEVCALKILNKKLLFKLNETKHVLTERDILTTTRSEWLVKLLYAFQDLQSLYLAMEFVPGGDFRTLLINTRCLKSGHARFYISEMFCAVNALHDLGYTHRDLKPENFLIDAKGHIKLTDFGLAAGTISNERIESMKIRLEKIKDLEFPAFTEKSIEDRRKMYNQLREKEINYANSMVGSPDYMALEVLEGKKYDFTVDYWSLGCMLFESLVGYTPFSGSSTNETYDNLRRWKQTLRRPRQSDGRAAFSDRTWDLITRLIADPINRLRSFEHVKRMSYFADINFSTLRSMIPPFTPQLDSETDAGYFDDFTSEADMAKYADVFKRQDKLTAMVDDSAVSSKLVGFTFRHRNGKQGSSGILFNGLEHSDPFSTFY

Variants of: B1
Conditions: with dbf20_yeast DBF20, P32328

Variant | effect of a mutation on the interaction
MSFLQNFHISPGQTIRSTRGFKWNTANAANNAGSVSPTKATPHNNTINGNNNNANTINNRADFTNNPVNGYNESDHGRMSPVLTTPKRHAPPPEQLQNVTDFNYTPSHQKPFLQPQAGTTVTTHQDIKQIVEMTLGSEGVLNQAVKLPRGKDENEWLAVHCVDFYNQINMLYGSITEFCSPQTCPRMIATNEYEYLWAFQKGQPPVSVSAPKYVECLMRWCQDQFDDESLFPSKVTGTFPEGFIQRVIQPILRRLFRVYAHIYCHHFNEILELNLQTVLNTSFRHFCLFAQEFELLRPADFGPLLELVMELRDR [E151K] | disrupting interaction strength
MSFLQNFHISPGQTIRSTRGFKWNTANAANNAGSVSPTKATPHNNTINGNNNNANTINNRADFTNNPVNGYNESDHGRMSPVLTPPKRHAPPPEQLQNVTDFNYTPSHQKPFLQPQAGTTVTTHQDIKQIVEMTLGSEGVLNQAVKLPRGEDENEWLAVHCVDFYNRINMLYGSITEFCSPQHCPRMIATNEYEYLWAFQKGQPPVSVSAPKYVECLMRWCQDQFDDESLFPSKVTGTFPEGFIQRVIQPILRRLFRVYAHIYCHHFNEILELNLQTVLNTSFRHFCLFAQEFELLRPADFGPLLELVMELRDR [T85P;Q167R;T183H] | disrupting interaction strength
MSFLQNFHISPGQTIRSTRGFKWNTANAANNAGSVSPTKATPHNNTINGNNNNANTINNRADFTNNPVNGYNESDHGRMSPVLTTPKRHAPPPEQLQNVTDFNYTPSHQKPFLQPQAGTTVTTHQDIKQIVEMTLGSEGVLNQAVKLPRGEDENEWPIVHCVDFYNQINMLYGSITEFCSPQTCPRMIATNEYEYLWAFQKGQPPVSVSAPKYVECLMRWCQDQFDDESLFPSKVTGTFPEGFIQRVIQPILRRLFRVYAHIYCHHFNEILELNLQTVLNTSFRHFCLFAQEFELLRPADFGPLLELVMELRDR [L157P;A158I] | disrupting interaction strength

Variants of: B2
Conditions: with mps1_yeast MPS1, P54199

Variant | effect of a mutation on the interaction
MSFLQNFHISPGQTIRSTRGFKWNTANAANNAGSVSPTKATPHNNTINGNNNNANTINNRADFTNNPVNGYNESDHGRMSPVLTTPKRHAPPPEQLQNVTDFNYTPSHQKPFLQPQAGTTVTTHQDIKQIVEMTLGSEGVLNQAVKLPRGKDENEWLAVHCVDFYNQINMLYGSITEFCSPQTCPRMIATNEYEYLWAFQKGQPPVSVSAPKYVECLMRWCQDQFDDESLFPSKVTGTFPEGFIQRVIQPILRRLFRVYAHIYCHHFNEILELNLQTVLNTSFRHFCLFAQEFELLRPADFGPLLELVMELRDR [E151K] | with no effect
MSFLQNFHISPGQTIRSTRGFKWNTANAANNAGSVSPTKATPHNNTINGNNNNANTINNRADFTNNPVNGYNESDHGRMSPVLTTPKRHAPPPEQLQNVTDFNYTPSHQKPFLQPQAGTTVTTHQDIKQIVEMTLGSEGVLNQAVKLPRGEDENEWPIVHCVDFYNQINMLYGSITEFCSPQTCPRMIATNEYEYLWAFQKGQPPVSVSAPKYVECLMRWCQDQFDDESLFPSKVTGTFPEGFIQRVIQPILRRLFRVYAHIYCHHFNEILELNLQTVLNTSFRHFCLFAQEFELLRPADFGPLLELVMELRDR [L157P;A158I] | with no effect
MSFLQNFHISPGQTIRSTRGFKWNTANAANNAGSVSPTKATPHNNTINGNNNNANTINNRADFTNNPVNGYNESDHGRMSPVLTPPKRHAPPPEQLQNVTDFNYTPSHQKPFLQPQAGTTVTTHQDIKQIVEMTLGSEGVLNQAVKLPRGEDENEWLAVHCVDFYNRINMLYGSITEFCSPQHCPRMIATNEYEYLWAFQKGQPPVSVSAPKYVECLMRWCQDQFDDESLFPSKVTGTFPEGFIQRVIQPILRRLFRVYAHIYCHHFNEILELNLQTVLNTSFRHFCLFAQEFELLRPADFGPLLELVMELRDR [T85P;Q167R;T183H] | decreasing interaction strength

Variants of: B3
Conditions: with dbf2_yeast DBF2, P22204

Variant | effect of a mutation on the interaction
MSFLQNFHISPGQTIRSTRGFKWNTANAANNAGSVSPTKATPHNNTINGNNNNANTINNRADFTNNPVNGYNESDHGRMSPVLTTPKRHAPPPEQLQNVTDFNYTPSHQKPFLQPQAGTTVTTHQDIKQIVEMTLGSEGVLNQAVKLPRGEDENEWPIVHCVDFYNQINMLYGSITEFCSPQTCPRMIATNEYEYLWAFQKGQPPVSVSAPKYVECLMRWCQDQFDDESLFPSKVTGTFPEGFIQRVIQPILRRLFRVYAHIYCHHFNEILELNLQTVLNTSFRHFCLFAQEFELLRPADFGPLLELVMELRDR [L157P;A158I] | disrupting interaction strength
MSFLQNFHISPGQTIRSTRGFKWNTANAANNAGSVSPTKATPHNNTINGNNNNANTINNRADFTNNPVNGYNESDHGRMSPVLTTPKRHAPPPEQLQNVTDFNYTPSHQKPFLQPQAGTTVTTHQDIKQIVEMTLGSEGVLNQAVKLPRGKDENEWLAVHCVDFYNQINMLYGSITEFCSPQTCPRMIATNEYEYLWAFQKGQPPVSVSAPKYVECLMRWCQDQFDDESLFPSKVTGTFPEGFIQRVIQPILRRLFRVYAHIYCHHFNEILELNLQTVLNTSFRHFCLFAQEFELLRPADFGPLLELVMELRDR [E151K] | disrupting interaction strength
MSFLQNFHISPGQTIRSTRGFKWNTANAANNAGSVSPTKATPHNNTINGNNNNANTINNRADFTNNPVNGYNESDHGRMSPVLTPPKRHAPPPEQLQNVTDFNYTPSHQKPFLQPQAGTTVTTHQDIKQIVEMTLGSEGVLNQAVKLPRGEDENEWLAVHCVDFYNRINMLYGSITEFCSPQHCPRMIATNEYEYLWAFQKGQPPVSVSAPKYVECLMRWCQDQFDDESLFPSKVTGTFPEGFIQRVIQPILRRLFRVYAHIYCHHFNEILELNLQTVLNTSFRHFCLFAQEFELLRPADFGPLLELVMELRDR [T85P;Q167R;T183H] | decreasing interaction strength

Source: IntAct's records for PubMed 9528782
